Laboratory results as given in patent US7063946B2, “Methods, reagents, kits and apparatus for protein function analysis” (Meso Scale Technologies, LLC., priority 2001, dated 2006).

Tests used:
[1] = biological target: T1, EGFR-pY992 (SEQ ID NO: 5) (Homo sapiens, UniProt P00533); test: Single-well 4-spot assay for multiple peptide-protein interactions; type: binding; conditions: 4-spot plate
T1 construct: phosphotyrosine at Tyr992 (chemical modification); purchased New England Peptide, Fitchburg Mass; host or cells: chemical synthesis
Source text: Four phosphopeptides and their cognate binding proteins (Table 14) were selected for an integrated assay of multiple peptide-protein interaction in 4-spot Multi-Array plates. The IkBa-24pp peptide and its binding protein, βTRCP, are described in Example 10. […] These phosphotyrosine containing peptides are recognized by different adaptor or effecter proteins of the receptor tyrosine kinase signaling pathway.
These four peptides were coupled to BSA carrier protein through cystine residue. After purification on PD-10 gel filtration columns, the peptide-BSA conjugates were then deposited on the assay domains of a 4-spot multi-array IPR plate (i.e., in one of the four exposed regions of working electrode defined by the dielectric layer) with an automated micro-dispensing system (Bio-Dot Dispenser, Bio-Dot, Irvine Calif.). […] These plates are dried then used or stored under desiccated conditions. A few hours prior to usage the plates were rehydrated and blocked with 3% BSA in PBS. […] The in vitro translated and biotin-labeled proteins were then assayed in the 4-spot multi-array IPR plates under conditions described in Example 10.

FRK = test: Kinase inhibitor profiling, pEY phosphorylation; type: biochemical

Row | Molecule | ECL signal, spot 4 EGFR-pY992 [1] | Inhibition specificity towards pEY phosphorylation at 10X IC50, FRK (FRK)
1 | 3872466: IMAGE clone protein: mCBP [compound 3872466] | 498 | 
2 | COc1c(C=O)c(O)cc2c1C(=O)c1ccccc1C2=O [Damnacanthal] |  | H (high inhibition (“H”=less than 25% of the activity remaining))
